Assay results reported in US11407811B2, “Fusion protein, preparation method therefor and use thereof” (JIANGSU RONGTAI BIOTECH CO., LTD., priority 2017, dated 2022).

Experiments:
[1] = system: iris neovascularization in rabbits; assay: Iris neovascularization in rabbits; type: in vivo, rabbit; conditions: 128 μg, intravitreal injection once every 5 days for 2 weeks
Experimental: The argon ion laser at 577 nm was used to occlude the major branch vein of rabbit retina, and a success venous occlusion was confirmed by fundus fluorescein angiography (FFA).
9 eyes successful in modeling were randomly divided into […]. They were labeled as a negative control group, and fusion protein I, protein II, protein III, protein IV and protein V treatment groups, respectively, which were respectively given physiological saline, 128 μg of fusion protein I, 128 μg of protein II, 128 μg of protein III, 128 μg of protein IV and 128 μg of protein V via intravitreal injection once every 5 days for 2 weeks. The observation was performed with an optical and electron microscope on the third week.

[2] = system: breast cancer cell MDA-MB-231; assay: MTT assay, proliferation of breast cancer cell MDA-MB-231; type: cell-based
Experimental: The MTT assay was used to detect the inhibitory effect of the integrin blocker fusion protein obtained in Example 1 on the proliferation of various tumor cells, including melanoma cell B16F10, gastric cancer cell MGC-803, lung cancer cell A549, liver cancer cell Hep-G2, breast cancer cell MDA-MB-231, colon cancer cell HCT-116, human glioma U87, and cervical cancer cell Hela.
The tumor cells were cultured in a 5% CO2 incubator at 37° C. to a density of 90% or more, and collected by trypsinization. The cells were resuspended in the culture liquid and counted under a microscope. The cell concentration was adjusted to 3.0×10^4 cells/mL. The cell suspension was inoculated into a 96-well plate at 100 μL per well and cultured overnight in a 5% CO2 incubator at 37° C. […] After the cells were fully adhered, each dilution was added to a 96-well plate at 100 μL per well, respectively. […] 20 μL of 5 mg/mL MTT was added to each well of a 96-well plate, and incubation was continued for 4 hours. The medium was aspirated and 100 μL of DMSO per well were added to dissolve. The absorbance was measured at 570 nm with a microplate reader with a reference wavelength of 630 nm, and the proliferation inhibition (PI) was calculated. The formula is as follows: […]
where Ntest is the OD value of the test group and Ncontrol is the OD value of the blank control group.
The test was repeated 5 times independently. The results obtained from the test were calculated as mean±SD, and statistical t-test was performed. P<0.05 was considered as a significant difference, and P<0.01 was considered as an extremely significant difference.

[3] = system: IL-1β production by mouse peritoneal macrophages; assay: IL-1β production by mouse peritoneal macrophages (ELISA); type: cell-based
Experimental: (1) IL-1β production: mice were intraperitoneally injected with 1 mL of broth medium containing 6% starch, and three days later, the mouse peritoneal macrophages were aseptically taken, washed twice with a 1640 medium, and the cell concentration was adjusted to 2×10^6 cells/mL, inoculated into a 24-well culture plate at 1 mL/well, incubated for 3 h in a cell incubator, and shaken once every 30 min, so that the cells were allowed to adhere sufficiently. Then, the cells were washed twice with a culture liquid to remove un-adhered cells. […] The supernatant was taken as a sample for testing activity of IL-1β.
(2) Determination of IL-1β content: the detection was performed by using mouse IL-1β enzyme-linked immunosorbent assay kit from R&D company. According to the instructions of the kit, the procedures were as follows: the reaction well for the test samples and different concentrations of standards were sealed with sealing tapes, respectively, incubation was performed at 37° C. for 90 min; the plate was washed four times; a biotinylated antibody working solution (100 μL/well) was added, the reaction well was sealed with sealing tapes, and incubation was performed at 37° C. for 60 min; the plate was washed four times; an enzyme conjugate working solution (100 μL/well) was added, the reaction well was sealed with sealing tapes, incubation was performed at 37° C. for 30 min; the plate was washed four times; a developer (100 μL/well) was added, incubation was performed at 37° C. for 10 to 20 min, a stop solution (100 μL/well) was added and mixed and the OD450 value was measured.

tampon granuloma in rat = type: in vivo
Experimental: 40 parts of degreasing cotton, 30 mg for each part, were accurately weighed with an analytical balance and kneaded into balls having substantially the same shape and size, which were autoclaved at […] for 30 min and dried at 50° C. for further use.
40 male SD rats were randomly divided into 4 groups with 10 rats for each group. […] Rats were anesthetized with sodium pentobarbital (40 mg/kg) via intraperitoneal injection before administration. The abdominal coat was cut off, and the skin of middle of the lower abdomen was cut under sterile conditions. The incision was about 1 cm long and the subcutaneous tissue was expanded with a vascular clamp. A sterile dry tampon was subcutaneously implanted into one side of the groin, the incision was sutured, and an appropriate amount of amoxicillin was spread at the incision to prevent infection. After the surgery was finished, the groups were administered once by injection from the day of surgery (EDSM needed to be administered twice a day). The rats were sacrificed by cervical dislocation at the 24th hour after administration, the inguinal skin was cut, the tampon was taken out together with the surrounding granulation tissue and the surrounding tissue was removed. After drying for additional 48 h in an oven at 60° C., the weight was accurately weighed. The granuloma weight was calculated: granuloma weight (mg/100 g body weight)=net weight of granulation (mg)/rat body weight (100 g).

B1: Protein II: IgG2-Fc linked to antiangiogenesis polypeptide EDSM-Y via a flexible linker; SEQ ID NO: 17 (protein)
chain: ERKCCVECPPCPAPPVAGPSVFLFPPKPKDTLMISRTPEVTCVVVDVSHEDPEVQFNWYVDGVEVHNAKTKPREEQFNSTFRVVSVLTVVHQDWLNGKEYKCKVSNKGLPAPIEKTISKTKGQPREPQVYTLPPSREEMTKNQVSLTCLVKGFYPSDISVEWESNGQPENNYKTTPPMLDSDGSFFLYSKLTVDKSRWQQGNVFSCSVMHEALHNHYTQKSLSLSPGKGGGGSGGGGSGGGGSFQPVLHLVALNSPLSGGMRGIRGADFQCFQQARAVGLAGTFRAGGGGRGD
effect on iris neovascularization [1]: could inhibit neovascularization and regress the formed blood vessels | A570 nm/A630 nm ([2]; dose 1 μg/mL): 0.9859 ± 0.0397 | PI (%) ([2]; dose 1 μg/mL): 5.09% | A570 nm/A630 nm ([2]; dose 2 μg/mL): 0.9552 ± 0.0419 | PI (%) ([2]; dose 2 μg/mL): 8.05% | A570 nm/A630 nm ([2]; dose 4 μg/mL): 0.9150 ± 0.0283 | PI (%) ([2]; dose 4 μg/mL): 11.92% | A570 nm/A630 nm ([2]; dose 8 μg/mL): 0.8806 ± 0.0345 | PI (%) ([2]; dose 8 μg/mL): 15.23% | A570 nm/A630 nm ([2]; dose 16 μg/mL): 0.8110 ± 0.0298 | PI (%) ([2]; dose 16 μg/mL): 21.93% | A570 nm/A630 nm ([2]; dose 32 μg/mL): 0.7546 ± 0.0274 | PI (%) ([2]; dose 32 μg/mL): 27.36% | A570 nm/A630 nm ([2]; dose 64 μg/mL): 0.6945 ± 0.0326 | PI (%) ([2]; dose 64 μg/mL): 33.14% | A570 nm/A630 nm ([2]; dose 128 μg/mL): 0.6589 ± 0.0287 | PI (%) ([2]; dose 128 μg/mL): 36.57% | A570 nm/A630 nm ([2]; dose 256 μg/mL): 0.6012 ± 0.0311 | PI (%) ([2]; dose 256 μg/mL): 42.13% | IL-1β ([3]; dose 8 μg/mL): 746.38 ± 16.59 pg/mL | PI (%) ([3]; dose 8 μg/mL): 11.85% | IL-1β ([3]; dose 32 μg/mL): 596.02 ± 19.97 pg/mL | PI (%) ([3]; dose 32 μg/mL): 29.61% | IL-1β ([3]; dose 128 μg/mL): 440.56 ± 11.38 pg/mL | PI (%) ([3]; dose 128 μg/mL): 47.97% | inhibition of IL-1β production ([3]; in words): could significantly inhibit IL-1β production | inhibition of tampon granuloma in rat (tampon granuloma in rat; effective dose of 64 mg/kg, compared with the blank model group): could significantly inhibit tampon granuloma in rat | GranuLoma (mg)/Weight (100 g) (tampon granuloma in rat; rat, 64 mg/kg, injection): 0.23 ± 0.05 mg/100 g | PI (%) (tampon granuloma in rat; rat, 64 mg/kg, injection): 55.77% | Weight gain (tampon granuloma in rat; rat, in vivo, 64 mg/kg): 32.16 ± 10.13 g
